Amyloid nucleation score data for 139 substances are collected here from the supplement of paper PMC12042874.

± gives the uncertainty stated by the source.

The nature of this data set: amyloid nucleation score (Sup35N fusion, yeast selection) (log enrichment); library NNK1; higher = more nucleation; inactive = no reads after selection. In short, it runs like this: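 Random libraries were run with three technical output replicates. In each, psi-negative yeast expressing Sup35N fused to peptides of 20 random codons were induced 24 hours with 100 μM copper sulfate and grown 7 days at 30°C on medium lacking adenine and uracil, and input and output plasmid inserts were Illumina-sequenced. The nucleation score is the DiMSum log enrichment of output over input reads, centred on the mode score of non-aggregating sequences, and sequences under 100 input reads were excluded.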
The substance EVILFNGLRMRAVPETWAST gave an amyloid nucleation score of 0.587 ± 0.4.
The same measure for YYRKHFRLYIIIWDLFKI: 0.282 ± 0.97; for ASWFLVISTSLVYHSATADR: 0.211 ± 0.39; for TYGKIMVN: -0.418 ± 1.5.
In turn, SSFYTRFWVGSHMCFAGMPK displayed an amyloid nucleation score of 0.203 ± 1.2.
The same measure for LWWYFHRTL: -0.168 ± 0.65; for YCCYAVRACFN: 7.509 ± 0.057.
The same measure for RIWPQIVCDIDIRP: -0.444 ± 0.52; for SSNSPCMPVRRTADNPSPYA: 0.239 ± 0.51; for VTQSYDFKSLQIISIQN: 1.39 ± 0.12.
The same measure for STVLQWIIGRPLYARDSLAS: -0.561 ± 0.6; for LEVMRWYWESLLACISLCD: 0.853 ± 0.74.
In turn, RCPYSYHGYSVNNWGSAWT yielded an amyloid nucleation score of 0.487 ± 0.54.
The same measure for IWHFASCAYGGVGSKGDPSD: 0.67 ± 0.69; for CPLTGDRTAVRHMRKSAFAE: -0.525 ± 0.4; for FKGRNSFPLLDSWVIHRIGI: 0.422 ± 0.9.
In turn, PVLLRSIIF came in with an amyloid nucleation score of -0.346 ± 0.36.
In the case of LLDARWRTYSFRVAMLWGRR, the amyloid nucleation score result is “inactive”.
The same measure for FGGSLMASFDCTRPSSMER: -0.606 ± 1.6; for IYVYQLSFCCKAY: 0.235 ± 0.66.
The same measure for TGRMGLTNRSEEFLSFLADS: -1.45 ± 0.89.
The substance QSSSYERLKQTGKLSFYIDF showed an amyloid nucleation score of -0.069 ± 0.61.
The same measure for RWSWTVIMSMEADGCFRLHL: 1.68 ± 0.28; for NTDYSQAGVCGSRCLNSAL: 1.54 ± 0.69; for VFVTGLCSEDVTIYSTM: -2.44 ± 2.4.
SYGMSYSVVWNWCECNSA: the amyloid nucleation score is 5.23 ± 0.053.
With IIQRAM, the amyloid nucleation score is 0.09 ± 0.7.
In turn, WSARHKHNTKCYFVRGQ gave an amyloid nucleation score of -0.081 ± 0.34.
The same measure for DANNIRLDDSFELRWCKNVC: -1.36 ± 0.91.
The same measure for SRYYASYFGIG: 0.034 ± 0.97; for YPGRLRCSRVMSEFVLNSAL: -1.27 ± 0.68.
The same measure for ILESCIWDITRLRWPYGSSW: 0.741 ± 0.21; for QGGRVDGSPPTVYA: 0.555 ± 0.46.
As for VGICMWHN, the amyloid nucleation score is 0.718 ± 0.21.
The same measure for STFGPCEVLVVQVDGPAYHT: -0.37 ± 0.55; for TVDKTYFFYIVDCNVDKPGD: 1.08 ± 0.59; for DVVFGFLGVGKLIGVDTMRR: -0.725 ± 0.9.
On to GVATPPLRANSLEG, for which the amyloid nucleation score result was “inactive”.
The same measure for HVDKFLG: -0.025 ± 0.6; for DLTVRPACAGCRLYSEVILD: -0.852 ± 1.6; for IVEFASFSVQVNARNDLHLV: 1.73 ± 0.28.
RIASSRVFFAFFRSLYMSGW gave an amyloid nucleation score of 0.995 ± 0.47.
The same measure for CHYVKPVFTICQVPTFIESI: 1.43 ± 0.51.
The same measure for PELAGRLSVRDLLW: 0.059 ± 0.47.
The same measure for NVLGLFQLRDSTQNGAMYIL: 0.076 ± 0.62.
Consider IEVKSWYATPNFGSQLSKRD, for which the amyloid nucleation score was 0.274 ± 0.45.
The same measure for NVISRSLVMYMYKEERPASA: 0.031 ± 0.27; for IVSLNGPAKSSAFGKFSGPL: -0.602 ± 0.72.
The same measure for SHLFQM: -0.034 ± 0.58; for AFGADKTRYMSVFTKCVS: 0.253 ± 0.37.
The same measure for TDIFSNISYQSGQPATIDYH: 0.176 ± 0.69; for KWNFVHMDQKGKELNSLFSL: -0.649 ± 0.54; for IFSIRFTLCGWPLLCHIMLL: -0.302 ± 0.31.
The substance TDNTSFELYIWTDAFLKQTT showed an amyloid nucleation score of 0.208 ± 1.
In turn, MHRSFFHVM had an amyloid nucleation score of 2.33 ± 0.52.
The same measure for SINSRKSFMFIF: 2.39 ± 0.16; for SSSVCPLHSADSCVSGISAD: 1.73 ± 0.64.
The same measure for SCEFLCVRHVLCHHLSLNVS: 0.296 ± 1.4; for FSSIVSGTLAI: “inactive”; for TFRGNRIINQNWGYHCMWWC: 5.733 ± 0.056.
The same measure for SNMNAFYTLEHVMPAKFEIS: 1.07 ± 0.33.
For the substance RVNMWRYI, the amyloid nucleation score was 0.295 ± 0.4.
The same measure for GPFASVFCAYGRVGVM: 0.354 ± 0.68.
For NQDVTPVMRVVLDSSPTLSS, the amyloid nucleation score worked out at 2 ± 0.6.
Consider FINGFGEDLKHIREVEVYLY, for which the amyloid nucleation score stood at 4.07 ± 0.084.
With AALVCPRFLTSKANFVPSKG, the amyloid nucleation score result was “inactive”.
The same measure for VCYSLSLNISFSFRNVVVRS: 0.899 ± 0.58.
For RDYSFGGLMPGCDGEHIVS, the amyloid nucleation score was -0.138 ± 0.4.
The same measure for DDMVDVPFTMVGMWPYDSY: -0.381 ± 0.3; for QFSHNRIMLDQTWKNVVKGL: -0.001 ± 0.37; for SSVCFGYRAIGTIRHMFSKC: 0.311 ± 0.33.
The same measure for LNNTVEDPA: 0.892 ± 0.92; for RTSRHVVVRREMRDRT: 0.202 ± 0.21.
The same measure for TEGLKVTLIHTTPLFCP: 0.239 ± 0.42.
Turning to RAAYACWHFTLYNFSLIVTT, the amyloid nucleation score stood at 1.83 ± 0.57.
The same measure for FDVLVIFGFDTNRDACSDAL: 0.174 ± 0.38; for APVSIKCRFL: 0.357 ± 0.55.
The same measure for YMLWSVPRLWCRVWLPTVAC: 0.585 ± 0.64; for SILEQILC: -0.324 ± 0.22; for QAVRIVGERLAFFGN: 0.607 ± 0.65.
The same measure for CTFSSWRESGFWTSLIHGYL: -0.218 ± 0.36; for LELLSSWWYSSIYTGTDCVT: 2.08 ± 0.25; for RKNAFDFDAS: -0.099 ± 0.42.
For RGMGVAWAYLSSNTRPRRLN, the amyloid nucleation score came out at 0.792 ± 0.76.
The same measure for KSTTLLVGSRSCGAHLQRLH: 0.462 ± 0.37; for VRDMHSHTLGYCRDGMYYFK: -0.403 ± 0.84; for MLKMTVYFHIMID: -0.065 ± 1.1.
The same measure for SSYFMVYYQRVTSCFMVGFL: -0.865 ± 0.48; for FGIWIRGFRTYDECHPAHGC: 0.434 ± 0.41; for LVGTTRLMRFWSRVMT: -0.171 ± 0.41.
The same measure for IYISYIRRRFVGLFST: -0.938 ± 0.47; for ICVNESKKVFQVFIANIGRG: 4.86 ± 0.07.
Turning to YMNLVLTDLAWSIWGG, the amyloid nucleation score turned out to be 3.62 ± 0.1.
The same measure for AVEVLGPCRNLRVWSNLDLG: -0.072 ± 0.74; for NQTNFDVSLY: 4.64 ± 0.055; for MCPSIQCYNNYILLQRSVIR: 7.08 ± 0.073.
The same measure for FRFSHRLFLWPKYFSIFKNS: 0.37 ± 0.35; for EAVSPYMYNYFRMANEQ: 0.311 ± 0.42.
The same measure for RKASYLSAVNMQFRESFLFW: -0.209 ± 0.28; for GHWSYYKVTSYYI: “inactive”; for SWDLGREYSGHRMTCLVWLV: -0.403 ± 0.68.
In the case of LYRSLLN, the amyloid nucleation score was -0.23 ± 1.1.
On to SVPQLVPNHFRVSWANHS, for which the amyloid nucleation score is -0.05 ± 1.4.
The same measure for KKNIWPLYSLRVRLYELAIS: -0.965 ± 1.7; for RDSRDLMCFVRLPLDRISK: -0.101 ± 0.39; for PKGIGGGCARTYRHRVRGSR: 0.184 ± 0.64.
The same measure for SKDGCSCFDIDVAMEGLLMR: -0.053 ± 1.1; for TYLIKMSVT: 0.313 ± 0.39; for CVDRQFAAVRQVTTIQTWCG: 0.983 ± 0.26.
As for KFTVVVAVSCRRLPSNICRI, the amyloid nucleation score is 0.141 ± 0.53.
The same measure for RTMHVRFDIRKVALKIFKFY: 1.3 ± 0.4; for KGWKTVVHCRDYGQVNNFGS: 2.22 ± 0.14; for AQQLGMMGVGFMQRWNCRF: -1.74 ± 2.4.
The same measure for CHYLVLD: -0.186 ± 0.74.
The same measure for QDIQSISWHAFVVESFKSEK: -0.094 ± 0.32; for CVTAAEM: 0.762 ± 0.41; for LLRVVKHCLCWNRYNDSDAG: 1.05 ± 0.34.
Substance IEAYYGIPDVKHMLVYLRQD had an amyloid nucleation score of -0.284 ± 0.7.
The same measure for QRPLCENRLDYKLGYSTMTF: -0.646 ± 1.6.
The same measure for DLIGFSWGTIEWLRA: -0.931 ± 0.64; for RIDYWVIPGAWNSTCWRYTT: 1.49 ± 0.45; for RWSETR: 0.998 ± 0.48.
The same measure for MQWSYV: 0.32 ± 0.37.
Regarding PRCFYLMSGEMISTYECKRT, the amyloid nucleation score was determined as 1.05 ± 0.39.
The same measure for RWGLRQIMVVENFIHRWVCP: 1.04 ± 0.79; for PAGNNYDNNVSNNGTCKEFW: 0.294 ± 0.28.
For MDCCYYFFLIF, the amyloid nucleation score came out at 4.15 ± 0.052.
The same measure for PSILTVCLRV: 0.188 ± 0.41.
The same measure for TIMVVWCSGKDGSQVTWMQF: 0.324 ± 0.34; for SKNAWRVKNKSEFAV: 0.488 ± 0.69.
The same measure for MMGGKDCQFYCSIPLFRVMM: 2.2 ± 0.16; for VRSPFSIHRRFLTLGIQEFS: 1.4 ± 0.74; for IWVSGWNYVGRVVVEYQRLS: 0.444 ± 1.4.
In turn, SGGSLVFVCYGRNF had an amyloid nucleation score of -1.35 ± 1.1.
LFYPFTLHWVCCSWCLYEVR registered an amyloid nucleation score of 6.927 ± 0.056.
The same measure for TYDVMTLGENVKGLCISARC: -0.412 ± 0.42.
The same measure for AYKDGVTTLDLGCTGCFCYA: 4.7 ± 0.072; for HVMTFEVSFRTGCKDVINWV: 1.03 ± 0.18; for IYYSFVGLVMCYAFPAEVWS: 1.4 ± 0.51.
